From patent US20130251703A1 (Novartis, published 2013)

Experiments:
[1] = biological target: T1, Hu HER3: CD33-[Human HER3, residues 20-640]-TAG (human, UniProt P21860 20-640); experiment: solution equilibrium titration (SET), IgG, ECL read-out
T1 construct: also called hu HER3-Tag; HER3-Tag; not shown: C-terminal TAG (e.g. FLAG TAG)

[2] = biological target: T2, Mu HER3: CD33-[Murine HER3, residues 20-643]-TAG (mouse, UniProt Q61526 20-643); experiment: as above
T2 construct: also called mu HER3-Tag; not shown: C-terminal TAG (e.g. FLAG TAG)

[3] = biological target: T3, Rat HER3: CD33-[Rat HER3, residues 20-643]-TAG (rat, UniProt Q62799 20-643); experiment: as above
T3 construct: also called ra HER3-Tag; not shown: C-terminal TAG (e.g. FLAG TAG)

[4] = biological target: T4, Cyno HER3: CD33-[Cyno HER3, residues 20-643]-TAG (cynomolgus monkey, UniProt G7PIG5 20-643); experiment: as above
T4 construct: also called cy HER3-Tag; not shown: C-terminal TAG (e.g. FLAG TAG)

[5] = biological target: T5, human HER3 endogenously expressed on human cancer cells (SK-Br-3, BT-474, MCF7) (human, UniProt P21860 20-1342); experiment: cell-based or functional assay
[6] = biological target: T5, human HER3 endogenously expressed on …; experiment: cell-based or functional assay; remark: listed apart in the source
[7] = biological target: T5, human HER3 endogenously expressed on …; experiment: cell-based or functional assay; remark: listed apart in the source

Binder	Kd [1] [nM]	Kd [2] [nM]	Kd [3] [nM]	Kd [4] [nM]	BT474 pHER3 % inhibition [5] [%]	BT474 pHER3 IC50 [5] [pM]	MCF7 pHER3 % inhibition [5] [%]	MCF7 pHER3 IC50 [5] [pM]	SK-Br-3 pHER3 % inhibition [5] [%]	SK-Br-3 pHER3 IC50 [5] [pM]	MCF7 proliferation % inhibition [6] [%]	MCF7 proliferation IC50 [6] [nM]	SK-Br-3 proliferation % inhibition [6] [%]	BT-474 pAkt % inhibition [7] [%]	BT-474 pAkt IC50 [7] [pM]	SK-Br-3 pAkt % inhibition [7] [%]	SK-Br-3 pAkt IC50 [7] [pM]	further results
MOR12605 (antibody, human IgG1, kappa, V domains shown, Tested as IgG) VH: QVQLVQSGAEVKKPGSSVKVSCKASGGTFSSYAISWVRQAPGQGLEWMGLIIPRYGKARYAQKFQGRVTITADESTSTAYMELSSLRSEDTAVYYCARNWPYYYMDFWGQGTLVTVSS VL: DIVLTQSPATLSLSPGERATLSCRASQNIVFNLAWYQQKPGQAPRLLIYDASNRATGVPARFSGSGSGTDFTLTISSLEPEDFAVYYCQQFRRKSNTFGQGTKVEIKR	1.8	2.3	9.6	2.9	64	1490	89	318	73	7	45	0.028	29	67	173	84	140	SK-Br-3 proliferation IC50 [6]: 0.01 pM; MCF7 pAkt % inhibition [7]: 76%; MCF7 pAkt IC50 [7]: 533 pM
MOR12606 (antibody, human IgG1, kappa, V domains shown, Tested as IgG) VH: QVQLVQSGAEVKKPGSSVKVSCKASGGTFSSYAISWVRQAPGQGLEWMGLIIPRYGKARYAQKFQGRVTITADESTSTAYMELSSLRSEDTAVYYCARNWPYYYMDFWGQGTLVTVSS VL: DIVLTQSPATLSLSPGERATLSCRASQNIVFNLAWYQQKPGQAPRLLIYDASNRATGVPARFSGSGSGTDFTLTISSLEPEDFAVYYCQQTKSKPSPTFGQGTKVEIKR	1.5	1.4	8.1	2.6	73	108	87	34	75	25	39	0.052	36	77	91	85	8	BT-474 proliferation % inhibition [6]: 40%; BT-474 proliferation IC50 [6]: 0.127 nM
